Results from patent US20070077617.

Key:
[1] = target: fusion protein PRA
[2] = target: fusion protein PRN
[3] = target: fusion protein PRG
[4] = target: fusion protein PRI
[5] = target: fusion protein PRT
[6] = target: fusion protein PRS
[7] = target: fusion protein PRW
[8] = target: fusion protein PRM
[9] = target: fusion protein PRH
[10] = target: fusion protein PRD
[11] = target: fusion protein PRE
[12] = target: fusion protein PRY
[13] = target: fusion protein PRK
[14] = target: fusion protein PRL
Sequence of fusion protein PRL (chain, as listed by the source): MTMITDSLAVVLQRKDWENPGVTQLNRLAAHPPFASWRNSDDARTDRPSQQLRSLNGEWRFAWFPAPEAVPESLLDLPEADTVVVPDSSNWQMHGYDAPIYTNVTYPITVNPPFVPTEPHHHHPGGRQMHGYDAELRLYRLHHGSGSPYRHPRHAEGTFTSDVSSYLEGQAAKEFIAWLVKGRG

[15] = target: fusion protein PRF
Sequence of fusion protein PRF (chain, as listed by the source): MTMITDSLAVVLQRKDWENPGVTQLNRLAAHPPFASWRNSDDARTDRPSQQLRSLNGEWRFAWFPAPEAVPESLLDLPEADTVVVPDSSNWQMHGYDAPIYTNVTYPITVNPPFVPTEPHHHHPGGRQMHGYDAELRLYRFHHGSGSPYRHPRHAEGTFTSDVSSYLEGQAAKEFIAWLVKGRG

[16] = target: fusion protein PRR
Sequence of fusion protein PRR (chain, as listed by the source): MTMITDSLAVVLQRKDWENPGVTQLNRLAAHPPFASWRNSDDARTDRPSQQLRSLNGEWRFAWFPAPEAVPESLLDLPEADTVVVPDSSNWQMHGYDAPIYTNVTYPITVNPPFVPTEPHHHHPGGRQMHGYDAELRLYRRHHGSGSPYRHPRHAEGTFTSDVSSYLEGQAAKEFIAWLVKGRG

[17] = target: fusion protein PRC
Sequence of fusion protein PRC (chain, as listed by the source): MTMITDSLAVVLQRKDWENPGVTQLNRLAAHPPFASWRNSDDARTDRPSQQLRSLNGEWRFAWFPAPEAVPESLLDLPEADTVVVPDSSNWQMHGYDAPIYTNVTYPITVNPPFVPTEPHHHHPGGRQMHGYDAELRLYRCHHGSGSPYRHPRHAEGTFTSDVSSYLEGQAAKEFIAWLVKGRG

[18] = target: fusion protein PRP
[19] = target: fusion protein PRQ
Sequence of fusion protein PRQ (chain, as listed by the source): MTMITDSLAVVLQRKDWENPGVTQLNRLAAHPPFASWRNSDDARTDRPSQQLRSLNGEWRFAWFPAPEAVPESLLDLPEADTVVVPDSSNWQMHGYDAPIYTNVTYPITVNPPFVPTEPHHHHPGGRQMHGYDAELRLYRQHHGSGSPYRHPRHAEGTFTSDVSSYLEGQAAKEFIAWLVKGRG

Measured: relative cleavage efficiency

Sequence of fusion protein PRI (chain, as listed by the source): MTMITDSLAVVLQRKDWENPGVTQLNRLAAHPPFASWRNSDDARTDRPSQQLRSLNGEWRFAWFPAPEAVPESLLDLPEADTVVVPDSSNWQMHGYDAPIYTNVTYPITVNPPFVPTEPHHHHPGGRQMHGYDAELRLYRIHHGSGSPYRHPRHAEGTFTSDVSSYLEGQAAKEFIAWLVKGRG
Sequence of fusion protein PRT (chain, as listed by the source): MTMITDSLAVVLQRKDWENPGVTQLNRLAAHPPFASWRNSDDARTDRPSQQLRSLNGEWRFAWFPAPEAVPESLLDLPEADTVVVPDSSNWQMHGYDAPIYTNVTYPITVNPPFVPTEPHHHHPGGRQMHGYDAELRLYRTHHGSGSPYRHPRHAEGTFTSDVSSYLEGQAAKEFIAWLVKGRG
Sequence of fusion protein PRK (chain, as listed by the source): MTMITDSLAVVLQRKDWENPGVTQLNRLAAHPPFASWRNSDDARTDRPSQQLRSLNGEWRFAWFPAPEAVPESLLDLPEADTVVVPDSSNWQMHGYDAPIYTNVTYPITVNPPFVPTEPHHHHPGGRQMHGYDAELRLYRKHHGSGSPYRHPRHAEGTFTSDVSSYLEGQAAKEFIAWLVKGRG
Sequence of fusion protein PRY (chain, as listed by the source): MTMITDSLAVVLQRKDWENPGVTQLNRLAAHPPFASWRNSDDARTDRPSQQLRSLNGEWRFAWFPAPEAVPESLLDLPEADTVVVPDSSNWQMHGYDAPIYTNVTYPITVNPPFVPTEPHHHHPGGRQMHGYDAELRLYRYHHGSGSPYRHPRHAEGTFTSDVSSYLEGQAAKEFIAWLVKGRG
Sequence of fusion protein PRS (chain, as listed by the source): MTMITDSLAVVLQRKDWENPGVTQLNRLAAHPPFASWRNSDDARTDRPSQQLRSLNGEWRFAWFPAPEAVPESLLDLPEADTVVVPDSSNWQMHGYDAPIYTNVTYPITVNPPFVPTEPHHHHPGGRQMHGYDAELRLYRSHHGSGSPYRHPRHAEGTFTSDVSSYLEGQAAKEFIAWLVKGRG
Sequence of fusion protein PRH (chain, as listed by the source): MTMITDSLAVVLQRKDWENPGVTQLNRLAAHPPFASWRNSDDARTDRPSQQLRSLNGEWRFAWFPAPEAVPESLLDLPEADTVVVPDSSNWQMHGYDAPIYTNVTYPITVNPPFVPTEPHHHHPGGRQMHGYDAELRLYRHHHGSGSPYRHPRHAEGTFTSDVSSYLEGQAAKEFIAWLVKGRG
Sequence of fusion protein PRA (chain, as listed by the source): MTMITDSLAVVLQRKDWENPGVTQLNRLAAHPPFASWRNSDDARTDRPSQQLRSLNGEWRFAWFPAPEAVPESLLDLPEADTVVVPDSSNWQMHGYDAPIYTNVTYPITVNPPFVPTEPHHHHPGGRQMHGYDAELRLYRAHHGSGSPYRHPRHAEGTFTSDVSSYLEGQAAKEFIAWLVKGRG
Sequence of fusion protein PRM (chain, as listed by the source): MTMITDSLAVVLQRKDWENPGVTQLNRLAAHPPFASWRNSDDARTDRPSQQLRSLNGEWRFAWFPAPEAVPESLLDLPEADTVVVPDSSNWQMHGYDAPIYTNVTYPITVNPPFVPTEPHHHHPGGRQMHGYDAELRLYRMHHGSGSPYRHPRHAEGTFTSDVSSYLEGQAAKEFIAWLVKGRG
Sequence of fusion protein PRN (chain, as listed by the source): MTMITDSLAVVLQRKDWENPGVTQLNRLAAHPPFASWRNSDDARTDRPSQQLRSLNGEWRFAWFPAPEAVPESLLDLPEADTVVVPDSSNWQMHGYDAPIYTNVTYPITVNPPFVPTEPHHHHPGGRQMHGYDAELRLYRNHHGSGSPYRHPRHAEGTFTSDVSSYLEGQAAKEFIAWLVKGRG
Sequence of fusion protein PRE (chain, as listed by the source): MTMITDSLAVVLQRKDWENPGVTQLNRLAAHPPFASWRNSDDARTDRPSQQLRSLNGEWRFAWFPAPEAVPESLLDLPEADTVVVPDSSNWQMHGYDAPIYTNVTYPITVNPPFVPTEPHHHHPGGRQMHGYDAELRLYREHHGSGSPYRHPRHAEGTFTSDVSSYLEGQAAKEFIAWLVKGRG
Sequence of fusion protein PRG (chain, as listed by the source): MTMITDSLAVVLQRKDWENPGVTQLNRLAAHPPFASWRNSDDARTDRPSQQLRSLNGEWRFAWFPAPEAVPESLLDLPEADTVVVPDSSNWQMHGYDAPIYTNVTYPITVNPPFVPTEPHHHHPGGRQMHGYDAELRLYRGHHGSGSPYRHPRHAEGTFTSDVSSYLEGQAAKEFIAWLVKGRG
Sequence of fusion protein PRW (chain, as listed by the source): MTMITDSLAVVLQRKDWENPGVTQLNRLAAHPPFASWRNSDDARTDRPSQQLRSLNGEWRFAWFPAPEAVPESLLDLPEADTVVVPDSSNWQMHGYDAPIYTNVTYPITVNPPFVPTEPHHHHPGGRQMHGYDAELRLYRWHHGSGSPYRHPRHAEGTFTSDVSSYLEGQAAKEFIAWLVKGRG
Sequence of fusion protein PRD (chain, as listed by the source): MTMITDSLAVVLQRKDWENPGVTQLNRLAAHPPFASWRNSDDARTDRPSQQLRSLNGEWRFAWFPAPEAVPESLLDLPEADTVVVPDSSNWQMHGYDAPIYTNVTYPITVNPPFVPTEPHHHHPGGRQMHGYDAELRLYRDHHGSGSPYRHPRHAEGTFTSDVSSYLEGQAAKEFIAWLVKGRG

B1: OmpT protease variant OmpT D97P (protein)
chain: STETLSFTPDNINADISLGTLSGKTKERVYLAEEGGRKVSQLDWKFNNAAIIKGAINWDLMPQISIGAAGWTTLGSRGGNMVDQDWMDSSNPGTWTPESRHPDTQLNYANEFDLNIKGWLLNEPNYRLGLMAGYQESRYSFTARGGSYIYSSEEGFRDDIGSFPNGERAIGYKQRFKMPYIGLTGSYRYEDFELGGTFKYSGWVESSDNDEHYDPGKRITYRSKVKDQNYYSVAVNAGYYVTPNAKVYVEGAWNRVTNKKGNTSLYDHNNNTSDYSKNGAGIENYNFITTAGLKYTF
less than 3.0%: [1] | [2] | [3] | [4] | [5] | [6] | [7] | [8] | [9] | [10] | [11] | [12] | [13] | [14] | [15] | [16] | [17] | [18] | [19]

B2: OmpT protease variant OmpT D97W (protein)
chain: STETLSFTPDNINADISLGTLSGKTKERVYLAEEGGRKVSQLDWKFNNAAIIKGAINWDLMPQISIGAAGWTTLGSRGGNMVDQDWMDSSNPGTWTWESRHPDTQLNYANEFDLNIKGWLLNEPNYRLGLMAGYQESRYSFTARGGSYIYSSEEGFRDDIGSFPNGERAIGYKQRFKMPYIGLTGSYRYEDFELGGTFKYSGWVESSDNDEHYDPGKRITYRSKVKDQNYYSVAVNAGYYVTPNAKVYVEGAWNRVTNKKGNTSLYDHNNNTSDYSKNGAGIENYNFITTAGLKYTF
less than 3.0%: [1] | [2] | [3] | [4] | [5] | [6] | [7] | [8] | [9] | [10] | [11] | [12] | [13] | [14] | [15] | [16] | [17] | [18] | [19]

B3: OmpT protease variant OmpT D97G (protein)
chain: STETLSFTPDNINADISLGTLSGKTKERVYLAEEGGRKVSQLDWKFNNAAIIKGAINWDLMPQISIGAAGWTTLGSRGGNMVDQDWMDSSNPGTWTGESRHPDTQLNYANEFDLNIKGWLLNEPNYRLGLMAGYQESRYSFTARGGSYIYSSEEGFRDDIGSFPNGERAIGYKQRFKMPYIGLTGSYRYEDFELGGTFKYSGWVESSDNDEHYDPGKRITYRSKVKDQNYYSVAVNAGYYVTPNAKVYVEGAWNRVTNKKGNTSLYDHNNNTSDYSKNGAGIENYNFITTAGLKYTF
less than 3.0%: [1] | [2] | [3] | [4] | [5] | [6] | [7] | [8] | [9] | [10] | [11] | [12] | [13] | [14] | [15] | [16] | [17] | [18] | [19]

B4: OmpT protease variant OmpT D97K (protein)
chain: STETLSFTPDNINADISLGTLSGKTKERVYLAEEGGRKVSQLDWKFNNAAIIKGAINWDLMPQISIGAAGWTTLGSRGGNMVDQDWMDSSNPGTWTKESRHPDTQLNYANEFDLNIKGWLLNEPNYRLGLMAGYQESRYSFTARGGSYIYSSEEGFRDDIGSFPNGERAIGYKQRFKMPYIGLTGSYRYEDFELGGTFKYSGWVESSDNDEHYDPGKRITYRSKVKDQNYYSVAVNAGYYVTPNAKVYVEGAWNRVTNKKGNTSLYDHNNNTSDYSKNGAGIENYNFITTAGLKYTF
less than 3.0%: [1] | [2] | [3] | [4] | [5] | [6] | [7] | [8] | [9] | [10] | [11] | [12] | [13] | [14] | [15] | [16] | [17] | [18] | [19]

B5: OmpT protease variant OmpT D97Y (protein)
chain: STETLSFTPDNINADISLGTLSGKTKERVYLAEEGGRKVSQLDWKFNNAAIIKGAINWDLMPQISIGAAGWTTLGSRGGNMVDQDWMDSSNPGTWTYESRHPDTQLNYANEFDLNIKGWLLNEPNYRLGLMAGYQESRYSFTARGGSYIYSSEEGFRDDIGSFPNGERAIGYKQRFKMPYIGLTGSYRYEDFELGGTFKYSGWVESSDNDEHYDPGKRITYRSKVKDQNYYSVAVNAGYYVTPNAKVYVEGAWNRVTNKKGNTSLYDHNNNTSDYSKNGAGIENYNFITTAGLKYTF
less than 3.0%: [1] | [2] | [3] | [4] | [5] | [6] | [7] | [8] | [9] | [10] | [11] | [12] | [13] | [14] | [15] | [16] | [17] | [18] | [19]

B6: OmpT protease variant OmpT D97R (protein)
chain: STETLSFTPDNINADISLGTLSGKTKERVYLAEEGGRKVSQLDWKFNNAAIIKGAINWDLMPQISIGAAGWTTLGSRGGNMVDQDWMDSSNPGTWTRESRHPDTQLNYANEFDLNIKGWLLNEPNYRLGLMAGYQESRYSFTARGGSYIYSSEEGFRDDIGSFPNGERAIGYKQRFKMPYIGLTGSYRYEDFELGGTFKYSGWVESSDNDEHYDPGKRITYRSKVKDQNYYSVAVNAGYYVTPNAKVYVEGAWNRVTNKKGNTSLYDHNNNTSDYSKNGAGIENYNFITTAGLKYTF
less than 3.0%: [1] | [2] | [3] | [4] | [5] | [6] | [7] | [8] | [9] | [10] | [11] | [12] | [13] | [14] | [15] | [16] | [17] | [18] | [19]
